Reference: a protein production outcome set (Wang et al. 2014)

Assay: label from the status in PepcDB records
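Further: failed if final PepcDB status was selected cloned or expressed and not failed if soluble or beyond.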

Sequence | protein production
MIYDLHSHSTASDGMLTPTELILRAVEQKVDVLALTDHDTLAGIQEAKIAAESQPIQLISGVEISALWQNKNIHLTALDIDEHHPALIELLQHHAVLREQRAVEIGEKLAKAGIPNAYHGAKMLANGEVTRAHYARFLVQQDYVRNIEHAFKKYLGTGKIAYVKPQWSSISHVIDVTHQAGGVICLAHPLRYKMTARWLRALIEHFKQAGGDGIEVASCGQRPDQRQLIARWASEFDLYASVGSDFHYPTGWIELGKSLTLPTTCKPIWQLFTTQ | failed
MPEVRAERYIPAPPERVYRLAKDLEGLKPYLKEVESLEVVAREGARTRSRWVAVAMGKKVRWLEEEEWDDENLRNRFFSPEGDFDRYEGTWVFLPEGEGTRVVLTLTYELTIPIFGGLLRKLVQKLMQENVESLLKGLEERVLAASS | not failed
MSTIFDIRNLRLPQLSRASVVIGSLVVVLALAAGIVGVRLYQKLTNNTVVAYFTQANALYVGDKVQIMGLPVGSIDKIEPAGDKMKVTFHYQNKYKVPANASAVILNPTLVASRNIQLEPPYRGGPVLADNAVIPVERTQVPTEWDELRDSVSHIIDELGPTPEQPKGPFGEVIEAFADGLAGKGKQINTTLNSLSQALNALNEGRGDFFAVVRSLALFVNALHQDDQQFVALNKNLAEFTDRLTHSDADLSNAIQQFDSLLAVARPFFAKNREVLTHDVNNLATVTTTLLQPDPLDGLETVLHIFPTLAANINQLYHPTHGGVVSLSAFTNFANPMEFICSSIQAGSRLGYQESAELCAQYLAPVLDAIKFNYFPFGLNVASTASTLPKEIAYSEPRLQPPNGYKDTTVPGIWVPDTPLSHRNTQPGWVVAPGMQGVQVGPITQGLLTPESLAELMGGPDIAPPSSGLQTPPGPPNAYDEYPVLPPIGLQAPQVPIPPPPPGPDVIPGPVPPTPAPVGAPLPAEAGGGQ | failed
MKNTKFSIKKIKNISNDPKVVHTKGALLEKMGKMESAIELYKSAALDNYVKSQYTLGNIYESKKQFKEAEKWYSMAYKSGSEDAAFDLGNMYYKLDGYEYAIYWYEKIANLGYLQAQNNLGVCHFKMKDFVRCEKWLKTAADKNLGKACFNLGVLYTFLEKDDEAYEYYKKGSVLLDDDAKYNLAILNGKKKDNKSTVSLYKQLYKSGHMKGCFNLGMIMEINDNLEDAEKYYKKSADRDDVKSEYRLAYVYDRKEELGDAIYYYEKAIEKNHTLSKYRLANLYNRENEIEKAKTYYKMAAEDDITEAKNNLAGIYFEEKDYENAIKYYEDAIAVGCKSSLENLGDLYYQNQDIEKAISYYSRIPNNVSCQIKLGNIYEDLNNIEEAISWYKKASENGDTRSSYRLGCIYESLGNTKNARKYFEMASSKNHMNARIHLGRIYFREGKLEESKMMFDTPANENNVYAQHMVGLIYDMFYKDYVNSKFWYEKARAQGCVESIYNLGQIYLKLNDDAEAEKYYKEGIKYGSKKCEYMLAGLYYKKSLDMYISLANEEYDNCEEIVEGFPNLNIDFDEVLIPPFKLQEEVIDEEEYVPIYILNIKESLDSMLEGLETEMIIDEEHDS | failed
MIGDYERFKQLKKKVAEALNISEEELDRMIDKKIEENGGIILKDAALMMIAKEHGVYGEEKNDEEFLISDIEEGQIGVEITGVITDISEIKTFKRRDGSLGKYKRITIADKSGTIRMTLWDDLAELDVKVGDVIKIERARARKWRNNLELSSTSETKIKKLENYEGELPEIKDTYNIGELSPGMTATFEGEVISALPIKEFKRADGSIGKLKSFIVRDETGSIRVTLWDNLTDIDVGRGDYVRVRGYIREGYYGGLECTANYVEILKKGEKIESEEVNIEDLTKYEDGELVSVKGRVIAISNKKSVDLDGEIAKVQDIILDNGTGRVRVSFWRGKTALLENIKEGDLVRITNCRVKTFYDREGNKRTDLVATLETEVIKDENIEAPEYELKYCKIEDIYNRDVDWNDINLIAQVVEDYGVNEIEFEDKVRKVRNLLLEDGTGRIRLSLWDDLAEIEIKEGDIVEILHAYAKERGDYIDLVIGKYGRIIINPEGVEIKTNRKFIADIEDGETVEVRGAVVKILSDTLFLYLCPNCRKRVVEIDGIYNCPICGDVEPEEILRLNFVVDDGTGTLLCRAYDRRVEKMLKMNREELKNLTIEMVEDEILGEEFVLYGNVRVENDELIMVVRRVNDVDVEKEIRILEEME | failed
MDLIEPAVRVFLGVFFLMIGLQFAARTLGLYSRLGFSHINYGKTGTATWWHRHTFNLFRAAILLMCLARIWVDLDAWLGVFPLLYHWPVLLAGAVLLLVSYTSVNYLQAYMHEDWRSGIDDHHGSGHLLTDGPFGRSRNPLFLAVMTGQLGFFLALPSVFSLVCLVTGVLVIMRQAREEEKALAKRFGEQYEAYCKRVPRWF | failed
MENDDVMTPPWLTPMLRADYFVTCSIHSQSSKSECNLFCLDCSGNAFCSSCLAHHRTHRVIQIRRSSYHNVVRVSEIQKHIDISCIQTYVINSAKIFFLNARPQCRTGKSLNKTCQICSRNLLDSFLFCSLACKLEGVKNGEDPNLTLFHSGKSDDSSKIINTGICSRLIDGISIAVDDQRSETAGVLSPETPSIESHRNYPMKSRRKGIPQRAPF | failed
MEAEKKKLSIPPKGIRAIIEAIRLGEIIKPSQYAKREAFKKHDVEEAWLNRVLTMIFYDIMKKQGLIDKVIKEIVGVTPLILDPWLRAALRVAVDIALFHDPSSQTIKNLRWKASDFISSRTHPYVGMYFWDLLDKIFEYKPNPKNELEELEWKYLAPSWLIERVKGILGDETEDFFRSVNKRHEWISIRVNTLKANVEEVIGELEEDGVEVVRSERVPTILKIKGPYNFDTSSAFNEGKIIVQEEASAVASIVLDPKPGETVVDLAAAPGGKTTHLAELMKNKGKIYAFDVDKMRMKRLKDFVKRMGIKIVKPLVKDARKAPEIIGEEVADKVLLDAPCTSSGTIGKNPELRWRLREDKINEMSQLQRELLESAARLVKPGGRLLYTTCSIFKEENEKNIRWFLNVHPEFKLVPLKSPYDPGFLEGTMRAWPHRHSTIGFFYALLEKSK | not failed
MIALAASSLGNTPIASFNRHFRFRLHPRNPLIQAAVSPSSSSSSPTASSGFDLSSLESAINKKDSNGVKEALDKLSEEGWAKKWSSQPYLSRRTTSLRELTTLGIKNAETLAIPSVRNDAAFLFTVVGSTGFIAVLAGQLPGDWGFFVPYLVGSISLVVLAVGSVSPGLLQAAISGFSTFFPDYQERIAAHEAAHFLGTLEKFKSFDSKVAYLIGLPILGYSLDIGKEHVNLIDERLAKLIYSGKLDSKELDRLAAVAMAGLAAEGLKYDKVIGQSADLFSLQRFINRSQPKISNEQQQNLTRWAVLYSASLLKNNKTIHEALMAAMSKNASVLECIQTIETAS | failed
MCAPKRGRSQQFITTVIVCWRMASFSFRIEVRLSDAERRPTMRQQLFSTLTVLVALVGLSRAVVAQPMAIATLTPPELQELQRLVPRSAEDYYNLGLMHQGRGDLAAAIDAFSQAIKLNPSADYYFARGLAYYDQGDMQRAIADFTTALGDDPQFIAAYYNRGMAYLALQNYDAAIADFDAALARDPQFVAAYYSRGMAHFDRGNVELAQRDYERARALNPAMTAQYYDRAPRPLTGGP | failed
MTVITLMLVLFEVVFSVSIYRYYYNGIVQYIESHAKTSTRFFSEYNSLYFIRLQEYSGDIISSFQLEGTELQLIDRHGSVIQSSSGEKVEGKVNIPQSLLEGEMYNQVTTKGNKKQLEVLSPLIHQGQTIGVLKYTTVLTNVNKKIIEIITFTISVGIVISGVVFLISRRLANSFVEPIESIIQASSQIAEGTLKQKIKEDYPGELGDLAHSLNYMAYKIDKAEQMKNEFIASISHEIRTPLTGIKGWSETLKTVDHLTEEEIKQGMGIISGETDRLIHLVEELLDFSRLQSNHFNLYKQKVQLYDILEETIWQLTPKSEEKEIQFITTIDRMELMGDRNRLKQVFLNIVQNAIKYSHKKSTIHIEATKIEGQAVIKVRDEGIGIAKEHLPYIEQSFYQINNHAAGAGIGLAIVKKMVELHSGVLSVTSKEGIGTTILIKLPL | failed
MKTHFYRLKFKKSIFFAVFLSFFSLLFAVDYFEEGKKLLYADKPQEAVSALFKASQEAGTPKSVYLYLGVAYFRMGKYSEALTYLSQGKDKDILNGHLYYYNIGNVYFLQNQFEASELAYNEAISSNGLYAPAFLNRANTRIKLEKLEGALQDYKIYLNLNPETLQRSSIEKMISLLEGLAEEAERAKALAEAKKAAEEAERLAAEARYKKLMEDVNANLSSVDNADALSAGADNTIDYSEENELD | failed
MPLHPTSQDCVVEQSVDALRERERRFRMLADNMSQLAWTASPRGQVQWYNERWYAYTGATLEAMVALGWRSVVHPEHRERVMARLQYCFATGSVWEDTFALRGKDGAFNWFLSRALPMRDAQGHITHWLGTHTDITAQVNAEEALRELNESLELRVAERTRELAKANELLQVEIAERAQAEEVLRHAQKMDAIGQLTGGIAHDFNNMLSGVLGALDMIRLRIGAQRFGEVDRYVDAAVSSANRAAALTQRLLTFARRQSLSVGTVDINCMVRSMEELLRGTVGNHAQLHIELEEGLSAIQTDEHQLENALLNLVINARDAVPVAGLISVRSQALRLVAQEGALAAGDYVRLSVEDNGCGIAQDVIDRVFDPFFTTKPVGQGTGLGLSMVYGFIKQTGGHVQIKSEQGQGTRICLYLPCGAATA | failed
MNYVVLGASAAGINAVKTLRELDKDSNIVVISKDENVYSRCMLHHVISEHRTLKQINFVDEDFMEQNNVKWIAGKTVKGIDINKKVVQTEDITVNYDKLLIATGASSAIPPIKNLRDGNFVYSVRNIDDIYKIKEKAQNSKNVVIIGAGLVGIDALVGLFKYEQLNISVAFMEKYILDRQLDEYTASVYENKFKEKGVKFYPSASIQEIVLDNSKNVTGVAFSNGEVLDADMVIVATGVKPNADFLDGTGIEYDRGIIIDDMCQTTQKDIYAAGDVVGKNAIWPLAVKQGIVAAYNMVGKDKKIEDEFAFKNSMNFMDIPTISIGMNTPVDDSYKVLTRHGINDYKKFVFKDNVIYGAVIQGDISYVGVLTYLIKNKVEIYDLENRIFDICYADFFNIKENGEFCYSV | failed
MSTTGKNTTAAATDTVTERPPVFSVDGLWKVFGPKAARVPADPDLTALSPAELRSRTGCTAAVADVSFDVRKGEVFVVMGLSGSGKSTLVRCLTRLIEPTAGSIVIDGEDVRAMDRSRLRELRRHRAAMVFQHFGLLPHRTVLDNVAYGLEVQGMGRAERRERAAAIVAKVGLEGLEQRRPGQLSGGQRQRVGLARALAVDPEVLLFDEPFSALDPLIRRDMQEEVVRLHREEGRTMVFITHDLQEALKLGDRIALMRDGRVVQLGTPEEIVGSPADDYVREFVRDVPREQVLTVRTAMRPAANADEAGTGPAIRPEATVSEAIEAVARAGSAARVMSDGRCLGVVDAADLLSVVAGTAAAGSRAAGAARVGAAATGERREPTDPRPATTEEPV | failed
MIIRIKHYGEVKIEDSKNLLLNLIENRIGIDNICNGKGTCGKCKVRFRQGVPEATSADLRYLSVEELEEGVRLACQVKPQKGMEIDVTLSNSFDRKNTVLRRDDQVALDSGLSGISLTIPQPSLEDERGDWDRIIDEYRKVMPEQGLALPSLGVLERLPGTLRKLDYRITAVTWQNRVIDVQPGHDTALHGLAVDIGTTSVAVALIDLKTGEVLGSVSAENGQTAFGGDVISRIAYAGEGLKNRLQLTAAVRSTINTLIDELVLQHEIVRNSIYKMTIVANTTMSHLFLGLDVSNLAVSPYVSVYNQALEFSAKELGLGSNPEAVVQILPNIGSFVGGDTVGALLGAPEVLTQGNHLLLDLGTNCELVLKTEKMMLACSTAAGPAFEGAGIFHGMRAKPGAIEGIRIHEEGVELRVIGDEEALGICGSGLIDGIAQMRQAGIINRKGAFVDPDHKDCSLSDELKSRIRKKEDYWEFVFAFGRQHKKDISLGQRDIEALQLAKGAVCAGIKTLVSLAGISLRDLDSIVMAGTFATYLKKESILSIGLTPHTDPEKIKMAGNAAHLGAIRTLLNQGTFAEGAELARRIQHIELGGDKTFTNFFMRSMYLEPTD | failed
MVNDVEVTVTYTASDEDATVTYVDDDKGGAQVGDIVTVTGKTDDSTTYTVTIPDGYEYVGTDGGVVSSDGKTVTITFTADDSDNVVIHLKHGLEHHHHHH | not failed
